Reference: paper PMC9068813, “Enhancer RNAs stimulate Pol II pause release by harnessing multivalent interactions to NELF”

Assays:
Conditions in all cases: protein: recombinant; tags: His-tag (Ni-NTA purified); copies: 1;1;1;1
[1] = molecular target: NELF double mutant (patch + ΔRRM) (UniProt Q9H3P2;Q8WX92;Q8IXH7;P18615 1-528;1-628;1-590;1-261+333-380, R291Q;K315M;K371M;K372M;K374M;K384M;K388M;R419Q;R506Q;internal_change); assay: EMSA (NELF release from PEC); large molar excess; 20 mM Na-HEPES pH 7.4, 100 mM NaCl, 25 mM KCl, 3 mM MgCl2, 2 mM DTT; assembly 30 °C, eRNA incubation 15-20 min at room temperature; 3.5% native PAGE 0.5x TBE at 4 °C; PEC about 0.1 µM NELF 0.15 µM
Chain of NELF double mutant (patch + ΔRRM) (Q9H3P2 whole entry, stated change not applied, chain 1 of 4): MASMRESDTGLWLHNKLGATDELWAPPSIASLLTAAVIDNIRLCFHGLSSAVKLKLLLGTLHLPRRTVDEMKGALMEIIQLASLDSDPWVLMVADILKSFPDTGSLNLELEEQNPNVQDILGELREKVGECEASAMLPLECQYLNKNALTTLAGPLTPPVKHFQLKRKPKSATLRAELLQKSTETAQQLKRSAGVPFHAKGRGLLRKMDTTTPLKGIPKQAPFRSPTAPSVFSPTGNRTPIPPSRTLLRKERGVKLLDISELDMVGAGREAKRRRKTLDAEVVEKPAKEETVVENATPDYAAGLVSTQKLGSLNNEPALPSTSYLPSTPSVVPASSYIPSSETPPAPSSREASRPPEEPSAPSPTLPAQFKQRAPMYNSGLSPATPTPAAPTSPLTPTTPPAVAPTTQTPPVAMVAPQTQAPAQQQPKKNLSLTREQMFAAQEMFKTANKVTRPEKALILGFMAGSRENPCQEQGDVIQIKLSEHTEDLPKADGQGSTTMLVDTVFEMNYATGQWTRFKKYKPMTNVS
Chain of NELF double mutant (patch + ΔRRM) (Q8WX92 other isoform, or with tags, fused parts or gaps with the stated changes, chain 2 of 4): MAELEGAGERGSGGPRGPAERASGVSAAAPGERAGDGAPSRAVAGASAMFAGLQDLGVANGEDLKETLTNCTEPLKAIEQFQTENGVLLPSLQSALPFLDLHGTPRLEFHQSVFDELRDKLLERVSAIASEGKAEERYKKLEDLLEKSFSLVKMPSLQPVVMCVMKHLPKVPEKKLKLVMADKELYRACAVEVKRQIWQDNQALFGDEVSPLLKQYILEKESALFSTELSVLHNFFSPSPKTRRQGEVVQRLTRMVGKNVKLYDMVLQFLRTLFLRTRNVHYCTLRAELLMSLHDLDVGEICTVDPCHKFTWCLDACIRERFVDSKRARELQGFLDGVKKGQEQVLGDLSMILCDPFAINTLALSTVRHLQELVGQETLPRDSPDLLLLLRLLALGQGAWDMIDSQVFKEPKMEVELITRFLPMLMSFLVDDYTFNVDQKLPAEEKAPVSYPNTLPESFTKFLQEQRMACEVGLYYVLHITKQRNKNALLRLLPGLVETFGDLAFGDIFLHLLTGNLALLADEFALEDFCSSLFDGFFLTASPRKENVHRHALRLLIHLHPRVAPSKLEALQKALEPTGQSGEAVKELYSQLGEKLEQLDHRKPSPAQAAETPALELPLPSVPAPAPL
Chain of NELF double mutant (patch + ΔRRM) (Q8IXH7 whole entry R291Q/K315M/K371M/K372M/K374M/K384M/K388M/R419Q/R506Q, chain 3 of 4): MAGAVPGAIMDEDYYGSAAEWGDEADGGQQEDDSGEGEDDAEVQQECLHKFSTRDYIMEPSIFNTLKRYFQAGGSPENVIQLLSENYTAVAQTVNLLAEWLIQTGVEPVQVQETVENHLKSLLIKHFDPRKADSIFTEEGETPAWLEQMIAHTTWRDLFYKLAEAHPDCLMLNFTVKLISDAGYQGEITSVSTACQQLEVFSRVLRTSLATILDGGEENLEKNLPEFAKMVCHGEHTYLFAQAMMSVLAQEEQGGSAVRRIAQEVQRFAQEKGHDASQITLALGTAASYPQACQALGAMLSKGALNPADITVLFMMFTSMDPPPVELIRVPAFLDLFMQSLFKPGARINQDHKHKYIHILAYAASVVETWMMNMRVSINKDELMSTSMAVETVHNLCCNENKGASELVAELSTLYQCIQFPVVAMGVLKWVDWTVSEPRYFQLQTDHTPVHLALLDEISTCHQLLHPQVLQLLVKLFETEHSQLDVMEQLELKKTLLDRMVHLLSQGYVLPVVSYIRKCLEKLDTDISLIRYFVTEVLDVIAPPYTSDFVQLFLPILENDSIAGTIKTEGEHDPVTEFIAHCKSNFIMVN
Chain of NELF double mutant (patch + ΔRRM) (P18615 other isoform, or with tags, fused parts or gaps with the stated changes, chain 4 of 4): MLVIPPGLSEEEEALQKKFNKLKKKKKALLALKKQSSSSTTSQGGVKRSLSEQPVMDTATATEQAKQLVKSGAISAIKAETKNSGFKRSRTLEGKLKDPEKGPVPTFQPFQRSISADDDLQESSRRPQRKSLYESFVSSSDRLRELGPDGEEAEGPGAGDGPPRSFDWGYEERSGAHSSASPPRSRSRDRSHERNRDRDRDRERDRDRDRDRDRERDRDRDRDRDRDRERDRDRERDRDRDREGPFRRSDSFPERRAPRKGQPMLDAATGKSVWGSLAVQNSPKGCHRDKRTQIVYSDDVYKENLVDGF

[2] = molecular target: T1, NELF-EΔRRM complex (NELFΔRRM) (UniProt Q9H3P2;Q8WX92;Q8IXH7;P18615 1-528;1-628;1-590;1-261+333-380, internal_change); assay: EMSA (NELF release from PEC); release not abolished; 20 mM Na-HEPES pH 7.4, 100 mM NaCl, 25 mM KCl, 3 mM MgCl2, 2 mM DTT; assembly 30 °C, eRNA incubation 15-20 min at room temperature; 3.5% native PAGE 0.5x TBE at 4 °C; PEC about 0.1 µM NELF 0.15 µM
T1 sequence (Q9H3P2 whole entry, stated change not applied, chain 1 of 4): as the sequence (Q9H3P2 whole entry, stated change not applied, chain 1 of 4) above
T1 sequence (Q8WX92 other isoform, or with tags, fused parts or gaps | mutant, chain 2 of 4): as the sequence (Q8WX92 other isoform, or with tags, fused parts or gaps with the stated changes, chain 2 of 4) above
T1 sequence (Q8IXH7 whole entry, stated change not applied, chain 3 of 4): as the sequence (Q8IXH7 whole entry R291Q/K315M/K371M/K372M/K374M/K384M/K388M/R419Q/R506Q, chain 3 of 4) above, with Q291R, M315K, M371K, M372K, M374K, M384K, M388K, Q419R, Q506R counted along it
T1 sequence (P18615 other isoform, or with tags, fused parts or gaps | mutant, chain 4 of 4): as the sequence (P18615 other isoform, or with tags, fused parts or gaps with the stated changes, chain 4 of 4) above

[3] = molecular target: T1, NELF-EΔRRM complex (NELFΔRRM); assay: EMSA (NELF release from PEC); apparent Kd; NELF in PEC on N1; 20 mM Na-HEPES pH 7.4, 100 mM NaCl, 25 mM KCl, 3 mM MgCl2, 2 mM DTT; assembly 30 °C, eRNA incubation 15-20 min at room temperature; 3.5% native PAGE 0.5x TBE at 4 °C; PEC about 0.1 µM NELF 0.15 µM

B1: Nr4a1-(b) eRNA 1-200 (structured_RNA)
RNA: AGUAGGGGCAUGGCUCGCCCGAGGCUCGGUGCUGCCCCGCCGCCCGCCGCGUUCCUUCCGGCUUGGUGUUCCGGUGGCGGGACCAGGGAAGGGAAGCUCGGGCCAAAUCCGGUCUCGGGCGAGGUGACAGAAAUUUGGAAUCUGACACCGGAGGAUGGCUGAGCUCCGGCUCCUCUGGGAGUGCAAUUACGGACUUCGCA
binding result [1]: no binding

B2: Nr4a1-(a) eRNA 1-100 (structured_RNA)
RNA: GCGGUGAGAGUGAUUUUGUAACUCUAAAGUUACAGAGGGUUUUGUUGUGUUUUUAAUCAAGAGCCCUGGUUUUGAUUUGUGGGUAAUCUUUCUUUAAACC
binding result [2]: binds

B3: Arc eRNA 1-200 (structured_RNA)
RNA: AAAACACAGCCGCCAGGGUGGGGGUGGCAGCCUUGAACGCCACCCUCUAACUGGCAUGGGCAUCUGAACUCUCAGCUCUGGGGGUGUCUCAUCGGCCAGCUGGCAGUAGCCCCCCCAACCCCACCCCUGAUGGAGAACUGCUCCUGUAUGAUCCAGCCCAGUGGGCGCACAGGGAGUUGGUAGGUGGGCACUCAGACUGG
binding result [1]: no binding
Kd [3]: 0.33 µM

B4: Nr4a1-(a) eRNA 1-200 (structured_RNA)
RNA: GCGGUGAGAGUGAUUUUGUAACUCUAAAGUUACAGAGGGUUUUGUUGUGUUUUUAAUCAAGAGCCCUGGUUUUGAUUUGUGGGUAAUCUUUCUUUAAACCUCGCCCAUUUCCGGCCUGGUGACCUGGGCCACUUUCUCAUGUUGACCCAGAUGAUCCUCAGUAGCAAGAACAAAAGGACAACAGAUGUGGAAACACUCAA
binding result [1]: no binding

B5: Arc eRNA 1-100 (structured_RNA)
RNA: AAAACACAGCCGCCAGGGUGGGGGUGGCAGCCUUGAACGCCACCCUCUAACUGGCAUGGGCAUCUGAACUCUCAGCUCUGGGGGUGUCUCAUCGGCCAGC
Kd [3]: 7.8 µM
